# Residue numbers refer to the chain shown, from its start.
# B1: P10-2 Fab (Fab, V domains shown)
# VH: QVQLVQSGAEVKKPGASVKVSCKASGYTFTNYGLSWVRQAPGQGLEWMGENHPGSGIIYHNEKFRGRVTLTADRSTSTAYMELSSLRSEDTAVYYCARSSGTRGFDYWGQGTLVTVSS
# VL: DVVMTQTPLSLSVTPGQPASISCRSSQSIVHSNGNTYLEWYLQKPGQSPQLLIYRVSNRFSGVPDRFSGSGSGTDFTLKISRVEAEDVGVYYCFQGSHGPWTFGQGTKLEIKR
# modifications: heavy chain N-terminal glutamine was modified into pyroglutamic acid in a great majority of purified antibodies
# notes: expressed in Expi293F cells; also called anti-human MUC1 antibody Fab fragment P10-2
# B2: mouse chimeric P10-2 IgG (antibody, V domains shown)
# VH: B1 VH
# VL: B1 VL
# notes: Antibody in which the VH and VL domains of P10-2 Fab were fused with mouse IgG2a CH1 to CH3 domains and a mouse κ chain CL domain; not shown: mouse IgG2a CH1 to CH3 domains; mouse κ chain CL domain
# B3: P10-1 Fab Dye (Fab, V domains shown)
# VH: B1 VH with D106A
# VL: B1 VL
# modifications: IRDye800CW (NHS ester) on Lys of the Fab fragment; number and positions not stated
# notes: also called IRDye800CW-labeled P10-1 Fab
# B4: P10-1 Fab (Fab, V domains shown)
# VH: B1 VH with D106A
# VL: B1 VL
# notes: expressed in Expi293F cells; also called anti-human MUC1 antibody Fab fragment P10-1
# Key:
# [1] = molecular target: T1, human cancer-specific MUC1 (human, UniProt P15941 24-1255, cancer-specific incomplete O-glycosylation (T, Tn, 2,3ST) of threonine at position 9 of the 20-amino acid tandem repeat … (SEQ ID NO: 15), as the background describes it); experiment: Cell ELISA on formalin-fixed T-47D cells, HRP anti-human Igκ, luminescence
# T1 construct: whole, on cells; also called Mucin 1; human MUC1
# [2] = molecular target: T1, human cancer-specific MUC1; experiment: immunostaining of a human bladder cancer tissue array, 0.25 µg/mL primary antibody, Polymer-HRP/DAB
Binder,fold binding activity compared to 1B2 Fab [1],further results
B1,≥ 10 times (vs 1B2 Fab),
B2,,binding result [2]: binds
B3,,binding result [1]: binds
B4,≥ 10 times (vs 1B2 Fab),

# — patent US20200261603A1 (Astellas, published 2020)
